T1: recombinant human CD123 (human, UniProt P26951 19-305, limits assumed)
T1 construct: also called coated CD123
T1 sequence (looked up): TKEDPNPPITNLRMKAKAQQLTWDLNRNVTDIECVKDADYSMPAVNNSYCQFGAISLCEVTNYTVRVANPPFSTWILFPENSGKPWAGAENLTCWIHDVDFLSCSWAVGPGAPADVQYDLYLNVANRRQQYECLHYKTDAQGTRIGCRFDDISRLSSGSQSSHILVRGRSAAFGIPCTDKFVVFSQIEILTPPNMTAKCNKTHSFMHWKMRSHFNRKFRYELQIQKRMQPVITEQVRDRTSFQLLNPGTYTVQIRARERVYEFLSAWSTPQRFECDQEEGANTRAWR

T2: recombinant human CD123-Fc (human, UniProt P26951 19-305, limits assumed)
T2 construct: Treated as one molecule; also called CD123-Fc peptide (Novoprotein); recombinant IL3R-alpha Fc-tagged; not shown: Fc tag
T2 sequence (looked up): T1 sequence (looked up)

B1: scFv MB36-A05 (scFv)
scFv: QVQLVQSGAEVKKPGSSVKVSCKASGGTFSSYAISWVRQAPGQGLEWMGGIIPIFGTANYAQKFQGRVTITADKSTSTAYMELSSLRSEDTAVYYCARGGRNSYYYYYMDVWGKGTTVTVSSGGGGSGGGGSGGGGSQSALTQPASVSGSPGQSITISCTGTSSDVGGYNYVSWYQQHPGKAPKLMIYEVSNRPSGVSNRFSGSKSGNTASLTISGLQAEDEADYYCSSYTSSSPVVFGGGTKLTVL
notes: Soluble scFv carried c-myc and His tags; also called CD123 (MB36-A05)
B2: scFv MB40-F08 (scFv)
scFv: QVQLVQSGAEVKKPGSSVKVSCKASGGTFSSYAISWVRQAPGQGLEWMGGIIPIFGTANYAQKFQGRVTITADESTSTAYMELSSLRSEDTAVYYCARGSGELLYASYYYYYMDVWGKGTTVTVSSGGGGSGGGGSGGGGSQSALTQPASVSGSPGQSITISCTGTSSDVGGYNYVSWYQQHPGKAPKLMIYEVSNRPSGVSNRFSGSKSGNTASLTISGLQAEDEADYYCSSYTSSSPLVFGTGTKVTVL
notes: Soluble scFv carried c-myc and His tags; also called CD123 (MB40-F08)
B3: scFv MB40-H08 (scFv)
scFv: QVQLVQSGAEVKKPGSSVKVSCKASGGTFSSYAISWVRQAPGQGLEWMGGIIPIFGTANYAQKFQGRVTITADESTSTAYMELSSLRSEDTAVYYCARNEWYSYYYYYMGVWGKGTTVTVSSGGGGSGGGGSGGGGSQSALTQPASVSGSPGQSITISCTGTSSDVGGYNYVSWYQQHPGKAPKLMIYEVSNRPSGVSNRFSGSKSGNTASLTISGLQAEDEADYYCSSYTSSSTLVVFGGGTKLTVL
notes: Soluble scFv carried c-myc and His tags; also called CD123 (MB40-H08)
B4: scFv MB44-H01 (scFv)
scFv: QVQLVQSGAEVKKPGSSVKVSCKASGGTFSSYAISWVRQAPGQGLEWMGGIIPIFGTANYAQRFQGRVTITADESTSTAYMELSSLRSEDTAVYYCARGLGTSYYYYYMDVWGKGTTVTVSSGGGGSGGGGSGGGGSQSVLTQPPSASGSPGQSVTISCTGTSSDVGGYNYVSWYQQHPGKAPKLMIYEVSNRPSGVSNRFSGSKSGNTASLTISGLQAEDEADYYCSSYTSSSTPVVFGGGTKLTVL
notes: Soluble scFv carried c-myc and His tags; also called CD123 (MB44-H01)
B5: scFv MB42-D03 (scFv)
scFv: QVQLVQSGAEVKKPGASVKVSCKASGYTFTSYGISWVRQAPGQGLEWMGWISAYNGNTNYAQKLQGRVTMTTDTSTSTAYMELRSLRSDDTAVYYCARGAYYDFWSSYSWFDPWGQGTLVTVSSGGGGSGGGGSGGGGSSYVLTQPPSVSVAPGKTARITCGGNSIGSKSVQWYQQKPGQAPVLVIYDDSDRPSGIPERFSGSNSGNTATLTISRVEAGDEADYYCQVWDSSSDVVFGGGTKLTVL
notes: Soluble scFv carried c-myc and His tags; also called CD123 (MB42-D03)
B6: scFv MB42-E02 (scFv)
scFv: QVQLVQSGAEVKKPGASVKVSCKASGYTFTSYGISWVRQAPGQGLEWMGWISAYNGNTNYAQKLQGRVTMTTDTSTSTAYMELRSLRSDDTAVYYCARGAYYDFWSGYSWFDPWGQGTLVTVSSGGGGSGGGGSGGGGSQSVLTQPPSVSVAPGQTARIPCGGNNIGSKGVHWYQQKSGQAPVMVVYDDSDRPSGIPERFSGSNSGNTATLTISRVEAGDEADYYCQVWDSSGDLVLFGGGTKLTVL
notes: Soluble scFv carried c-myc and His tags; also called CD123 (MB42-E02)
B7: scFv MB42-E12 (scFv)
scFv: QVQLVQSGAEVKKPGASVKVSCKASGYTFTSYGISWVRQAPGQGLEWMGWISAYNGNTNYAQKLQGRVTMTTDTSTSTAYMELRSLRSDDTAVYYCARGAYYDFWSSYSWFDPWGQGTLVTVSSGGGGSGGGGSGGGGSSYVLTQPPSVSVAPGKTARITCGGNNIGSKSVHWYQQKPGQAPVLVVYDDSDRPSGIPERFSGSNSGNTATLTISRVEAGDEADYYCQVWDSSSDHVVFGGGTKLTVL
notes: Soluble scFv carried c-myc and His tags; also called CD123 (MB42-E12)
B8: scFv MB31-A01 (scFv)
scFv: QIQLVQSGAEVKKPGSSVKVSCKASGGTFSSYAISWVRQAPGQGLEWMGGIIPIFGTANYAQKFQGRVTITADESTSTAYMELSSLRSEDTAVYYCARGSGELLYASYYYYYMDVWGKGTTVTVSSGGGGSGGGGSGGGGSQSALTQPASVSGSPGQSITISCTGTSSDVGGYNYVSWYQQHPGKAPELMIYDVSNRPSGVSNRFSGSKSGNTASLTISGLQAEDEADYYCSSYTSSSTPVVFGGGTKLTVL
notes: Soluble scFv carried c-myc and His tags (detection antibodies); also called CD123 (MB31-A01)
B9: scFv MB35-E02 (scFv)
scFv: QVQLVQSGAEVKKPGSSVKVSCKASGGTFSSYAISWVRQAPGQGLEWMGGIIPIFGTANYAQKFQGRVTITADESTSTAYMELSSLRSEDTAVYYCARHGGMATMLPYGAFDIWGQGTMVTVSSGGGGSGGGGSGGGGSDIRLTQSPSSLSASVGDRVTITCRASQGISSYLNWYQQKPGKAPKLLIYAASRLQSGVPSRFSGSGSGTDFTLTISSLQPEDFATYYCQQSYSTSLTFGGGTKVEIK
notes: Soluble scFv carried c-myc and His tags; also called CD123 (MB35-E02)
B10: CAR D0127 CD123 MB35-E02 CD8 BBz (other)
chain: QVQLVQSGAEVKKPGSSVKVSCKASGGTFSSYAISWVRQAPGQGLEWMGGIIPIFGTANYAQKFQGRVTITADESTSTAYMELSSLRSEDTAVYYCARHGGMATMLPYGAFDIWGQGTMVTVSSGGGGSGGGGSGGGGSDIRLTQSPSSLSASVGDRVTITCRASQGISSYLNWYQQKPGKAPKLLIYAASRLQSGVPSRFSGSGSGTDFTLTISSLQPEDFATYYCQQSYSTSLTFGGGTKVEIKAAATTTPAPRPPTPAPTIASQPLSLRPEACRPAAGGAVHTRGLDFACDIYIWAPLAGTCGVLLLSLVITLYCKRGRKKLLYIFKQPFMRPVQTTQEEDGCSCRFPEEEEGGCELRVKFSRSADAPAYQQGQNQLYNELNLGRREEYDVLDKRRGRDPEMGGKPRRKNPQEGLYNELQKDKMAEAYSEIGMKGERRRGKGHDGLYQGLSTATKDTYDALHMQALPPR
notes: Chimeric antigen receptor on transduced human primary T cells; also called EF-1a-CD123 MB35-E02 CD8 BBz

Molecular target: T1, recombinant human CD123
Experiment: ELISA, soluble scFv on coated recombinant human CD123
Procedure: After each round of incubation, the wells were washed 10 times for the first round, 20 times for the second round and 30 times for the third round with phosphate-buffered saline containing 0.05% Tween 20 (PBST) to remove nonspecifically bound phage. Antigen binding phage were eluted with 100 µl 10 µg/ml Trypsin diluted in PBS and mixed with TG1 competent cells for 1 hour at 37° C., and the phage was amplified from the infected cells and used in the next round of biopanning. After the third round of biopanning, 376 clones were randomly picked from the infected TG1 cells and each inoculated into 150 µl 2YT medium containing 100 µg/ml ampicillin and 200 mM glucose in 96-well plates by using the automated colony picking system (Molecular Devices, QPix 460) and were incubated at 37° C. overnight in a shaker at 300 rpm. Next day 10 µl of the bacterial cultures were used to inoculate 150 µl 2YT medium containing 100 µg/ml ampicillin and 50 µM isopropyl-β-d-thiogalactopyranoside in 96-well plates and the plates were further incubated at 30° C. overnight in a shaker at 300 rpm. […] The supernatants were incubated for 1 h at room temperature with recombinant human CD123 coated at 30 ng per well in 384-well plates and washed three times with PBST, (after overnight incubation at 4° C. it was blocked with 2% BSA in PBS containing 0.05% Tween 20 and washed three times with PBS containing 0.05% Tween 20.) After incubation the 3,3,′5,5′-tetramethylbenzidine (TMB) substrate was added, and solution absorbance at 450 nm (A450) measured. Clones that bound to CD123 with a signal to noise ratio of >5 were selected for further characterization.

| Binder | binding result |
| --- | --- |
| B1 | binds |
| B2 | binds |
| B3 | binds |
| B4 | binds |
| B5 | binds |
| B6 | binds |
| B7 | binds |
| B8 | binds |
| B9 | binds |

Molecular target: T3, CD123 on cells (MOLM-13, MOLM14, KG-1a, RS4;11-CD123) (human, UniProt P26951 19-378)
T3 construct: whole, on cells; also called CD123 antigen; CD123/IL-3 receptor alpha
T3 sequence (P26951 19-378): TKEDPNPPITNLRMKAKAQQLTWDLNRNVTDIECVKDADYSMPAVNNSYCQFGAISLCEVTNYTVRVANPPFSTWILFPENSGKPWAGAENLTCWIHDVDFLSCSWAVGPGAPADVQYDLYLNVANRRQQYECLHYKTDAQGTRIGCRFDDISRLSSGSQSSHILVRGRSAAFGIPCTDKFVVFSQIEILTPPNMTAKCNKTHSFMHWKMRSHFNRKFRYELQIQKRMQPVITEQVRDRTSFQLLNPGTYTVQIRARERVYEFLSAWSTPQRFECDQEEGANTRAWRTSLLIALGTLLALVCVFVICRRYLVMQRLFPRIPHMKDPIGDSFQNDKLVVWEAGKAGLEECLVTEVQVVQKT
Experiment: flow cytometry, soluble scFv on CD123-positive MOLM-13 cells, anti-His-APC
Procedure: Identified binders from ELISA were tested on CD123-positive the cell line MOLM-13. The CD123-negative cell line Jeko-1 CD20KO eGFP served as negative control. For positive control staining REAL270 (alpha CD123) and REAL116 (alpha CD123) antibodies were used, respectively. Soluble scFvs were expressed as described above. The bacterial pellets were disrupted by incubation with 0.3 mL TE buffer (10 mM Tris-HCl containing 1 mM EDTA, pH 8.0 at 37° C.)/well at 37° C., 250 rpm for 18 hours. Cultures were centrifuged at 4000xg, RT for 20 minutes and the supernatant was transferred to a fresh microtiter plate.
For cell staining cell number and viability were determined at MACSQuantX. A cell suspension containing needed cell number were centrifuged at 300xg, 4° C. for 10 minutes and supernatant was discarded. Cells are resuspended by addition of PEB buffer (1xPBS + 2 mM EDTA, 0.5% BSA pH 7.4 at RT) to a concentration of 1E+06 cells/mL. One hundred thousand cells per cell line were added to each well of 96-well V-bottom plate and the plate were centrifuged at 1300xg, 4° C. for 2 minutes. The supernatant was discarded, cells were resuspended in 100 µL of supernatant from periplasmatic preparation and cells were incubated for 10 minutes on ice. Cells were washed by addition of 100 µL PEB followed by centrifugation (1300 x g, 4° C. for 2 minutes), twice. Fifty microliter of secondary (Anti-His-APC conjugated antibody) or REAL antibody (diluted 1:50 in PEB buffer) per well were added and the plate is incubated for 10 minutes in the dark at 4° C. Cells were washed by addition of 100 µL PEB followed by centrifugation (1300xg, 4° C. for 2 minutes), twice. Propidium iodide was diluted 1:100 in Fixing solution (1xPBS + 2 mM EDTA + 1% PFA + 0.3% MeOH + 3% NaAzide) and washed cells were resuspended in 50 µL of the mixture. Signals are measured at MACSQuantX. Signals were analyzed using FlowLogic software. Statistical analysis was performed with VORTEX software.

| Binder | binding result |
| --- | --- |
| B1 | binds |
| B2 | binds |
| B3 | binds |
| B4 | binds |
| B5 | binds |
| B6 | binds |
| B7 | binds |
| B8 | binds |
| B9 | binds |

Molecular target: T2, recombinant human CD123-Fc
Experiment: flow cytometry, CAR T cells stained with recombinant IL3R-alpha Fc-tagged, anti-Fc AF647
Procedure: Half million CAR T cells were washed two times in cold AutoMACS buffer supplemented with 0.5% bovine serum albumin (Miltenyi Biotec, Bergisch Gladbach, Germany) and stained with 2.5 ug/ml CD123-Fc peptide (Novoprotein, Summit, NJ), followed by anti Fc-AF647 conjugate (Jackson ImmunoResearch, West Grove, PA). The 7-Aminoactinomycin D staining (7-AAD, BD Biosciences, San Jose, CA) was added to exclude dead cells. Non-transduced cells (UTD) were used as a negative control. Cells were washed twice with AutoMACS buffer supplemented with 0.5% bovine serum albumin, resuspended in 200 ul staining buffer and acquired by flow cytometry. Flow cytometric analysis was performed on a MACSQuant® 10 Analyzer (Miltenyi Biotec), and data plots were generated using FlowJo software (Ashland, OR).
Lentiviral vectors encoding the CD123 CAR constructs were used for CAR transduction into human primary T cells at multiplicity of infection (MOI) of 40. CAR surface expression of transduced T cells by flow cytometry using recombinant IL3R-alpha Fc-tagged, followed by staining with anti-Fc Alexa Flour 647.

| Binder | binding result |
| --- | --- |
| B10 | binds |

— US20230338424A1 (LENTIGEN TECHNOLOGY, published 2023)
